What was measured:
[1] = system: SAEC-NHLF lung micro-tissue; test: Wnt11 treatment of 3D SAEC-NHLF lung micro-tissue: marker expression (qRT-PCR, PCR, immunofluorescence); assay type: cell-based, human; settings: for AQP3 expression / E-cadherin expression / N-cadherin expression (EMT marker) / S100A4 expression (EMT marker) / SLUG expression (EMT marker): 3D cultures, Wnt11 SN vs control SN, mRNA in sorted lung epithelium; for pro-SFTPC protein expression: immunofluorescence, 3D micro-tissue, 72 hours, vs control SN
Description: (§1) Primary SAEC, NHLF and pulmonary HMVEC cells were purchased from Lonza. All cell types were isolated from the lungs of multiple random donors of different sexes and ages. We used SAGM, FGM or EGM-2 medium for the initial expansion of SAEC, NHLF or pulmonary HMVEC, respectively, as recommended by the manufacturer. All types of cell cultures were incubated in an atmosphere containing 5% CO2, at 37° C. For 2D and 3D culturing, pure or mixed cell populations were cultured in a 50-50% mixture of SAGM (Small Airway Growth Medium, Lonza) and complete DMEM. For two and three-cell cultures containing HMVEC cells, the appropriate growth factor supplements for HMVEC cells were added to the 50-50% mixture of SAGM and DMEM. The compositions of cell culture media were prepared in accordance with instructions of the manufacturer. For 2D and 3D culturing, cells were mixed at the indicated ratios and dispensed onto flat-bottom 6 well plates or 96-well V-bottom plates (Sarstedt), respectively. V-bottom plates were immediately centrifuged after cell seeding at 600×g for 10 minutes at room temperature.
SAEC and NHLF were stained with CFSE and DiI according to manufacturers instructions (Molecular probes). Cells were mixed and cultured for 72 hours in 2D and 3D systems. Stained cells were dissociated by mild trypsin treatment followed by PBS+EDTA treatment. Dissociated cells were sorted using a BD FACSVantage cell sorter into tubes with lysis buffer for mRNA preparation (Miltenyi Biotech).
After culturing cells in 3D for 3 days, micro-tissues were carefully removed from the V-bottom plates and fixed in 4% formaline for 10 minutes at room temperature. Fixed samples were covered with TissueTech cryostate embedding medium and 8 μm thick frozen sections were made. Sections were permeabilized in PBS buffer containing 0.1% saponine and 5% BSA for 30 minutes. Primary and secondary antibodies were diluted in the same buffer and incubated with the samples for 1-1 hour. Fluorescent images were acquired using an Olympus IX-81 fluorescent microscope. To ensure the comparability of expression levels of SFTPC, AQP3 and N-cad in Wnt11-SN— or Wnt11 siRNA-treated samples to their matched untreated controls, all images were captured with the same exposition settings.
Retroviral infection. Retroviral supernatants were generated from retroviral vectors containing Wnt11-GFP, or green fluorescence protein (GFP) only, in 293 cells. Epithelial cell line A549 was transformed using the above viruses in 24-well-plates, in 250 μl of viral supernatant and 50 μl of DMEM polybrene mix (final conc.: 8 μg/ml)/well, and then centrifuged for 60 min at 2100 rpm at room temperature. The cells were incubated for 3 days in fresh DMEM containing 10% FCS, then sorted based on GFP expression using FACSVantage cell sorter (BD Biosciences). GFP positive cells were then cultured as described above. The presence of Wnt11 protein were verified by immunoblotting and immunofluorescence using Wnt11 specific polyclonal antibody (AbCam) (FIG. 7).
All samples were set up in duplicates. Briefly, Ct values were determined for each sample using an automatic threshold level determined by the 7500 System SDS Software. Delta Ct (dCt) values were determined according to the following formula: dCt(target gene)=Ct(target gene)−Ct(housekeeping gene). Changes in gene expression are shown as RQ values calculated using the next formula: RQ=2^−ddCt, where ddCt values were calculated as ddCt=dCt(sample)−dCt(reference sample).

[2] = system: SAEC-NHLF lung micro-tissue; test: Wnt11 SN treatment of 3D lung micro-tissue: haematoxilin-eosin morphology; assay type: cell-based, human; settings: 3D micro-tissue, 72 hours, vs control A549 SN
Description: as §1
Retroviral infection. Retroviral supernatants were generated from retroviral vectors containing Wnt11-GFP, or green fluorescence protein (GFP) only, in 293 cells. […]

B1: Wnt11: Wnt11 protein, applied as supernatant (SN) of A549 cells transfected with lentiviral full-length Wnt11-IRES-GFP construct (protein, UniProt O96014 1-354, looked up)
chain: MRARPQVCEALLFALALQTGVCYGIKWLALSKTPSALALNQTQHCKQLEGLVSAQVQLCRSNLELMHTVVHAAREVMKACRRAFADMRWNCSSIELAPNYLLDLERGTRESAFVYALSAAAISHAIARACTSGDLPGCSCGPVPGEPPGPGNRWGGCADNLSYGLLMGAKFSDAPMKVKKTGSQANKLMRLHNSEVGRQALRASLEMKCKCHGVSGSCSIRTCWKGLQELQDVAADLKTRYLSATKVVHRPMGTRKHLVPKDLDIRPVKDSELVYLQSSPDFCMKNEKVGSHGTQDRQCNKTSNGSDSCDLMCCGRGYNPYTDRVVERCHCKYHWCCYVTCRRCERTVERYVCK
modifications: full-length
notes: Wnt11 protein, applied as supernatant (SN) of A549 cells transfected with lentiviral full-length Wnt11-IRES-GFP construct
[1]
  AQP3 expression: up-regulation
  E-cadherin expression: up-regulation
  N-cadherin expression (EMT marker): down-regulation
  S100A4 expression (EMT marker): down-regulation
  SLUG expression (EMT marker): down-regulation
  pro-SFTPC protein expression: radical increase
[1]; listed as Wnt11 SN
  AQP3 expression: increased
  E-cadherin expression: increased
  N-cadherin expression (EMT marker): decreased
  S100A4 expression (EMT marker): decreased
  SLUG expression (EMT marker): decreased
  pro-SFTPC protein expression: dramatic increase
[1]; PCR, Wnt11 treated cultures vs untreated control
  SFTPA mRNA levels: significant increase
[1]; all studied culture conditions, in the presence of fibroblasts
  surfactant expression (ATII type differentiation of alveolar epithelium): drastic boost
[2]
  epithelial cell morphology (HE staining): increased number of cells with cuboid-like morphology

— US9151744B2, “Lung tissue model” (Pécsi Tudományegyetem, priority 2009, dated 2015)
